According to patent US5558864A, “Humanized and chimeric anti-epidermal growth factor receptor monoclonal antibodies” (Merck Patent Gesellschaft Mit Beschrankter Haftung, dated 1996):
“Also recorded” adds a separate entry of the source.

Assays:
[1] = tested on: EGFR solubilized from A431 membranes; assay: Competitive binding of purified antibodies against biotin-labelled MAb 425 (Example 11); design: species or system human; settings: competition with biotin-labelled MAb 425, inhibition curves FIG. 10
Method: Biotin-labelled MAb 425 was Used to compete with unlabelled MAb 425 or derivates for binding to EGFR. Biotin-labelling occurred according to standard methods. EGFR was solubilized from A431 membranes by standard methods. A431 cells were commercially purchased. Detection was done after incubation with POD-conjugated streptavidin and substrate.

[2] = tested on: EGF-receptor positive membranes (A431); assay: Competition of 125I-labelled EGF and antibodies for EGF-receptor, SPA (Example 12); assay type: binding, human; settings: purified antibodies, 125I-EGF, FIG. 11
Method: Different probes of purified murine, chimeric and reshaped MAbs 425 were tested for their potency to compete with EGF regarding their binding to EGFR. The test was performed by competing ^125 I-labelled EGF (Amersham Corp., GB) and various antibodies for binding to EGF-receptor positive membranes (A431). The test system is based on SPA technology (Amersham).

[3] = tested on: human epidermal growth factor receptor (EGFR); settings: cited from earlier work
[4] = tested on: epidermoid and colorectal carcinoma-derived cell lines; settings: in vitro; cited from earlier work
EGFR protein [5] = assay: ELISA for antigen binding to EGFR; settings: transfected cell supernatants, detection with anti-human IgG; VH versions co-transfected with RVL a425, ranked: highest > followed by > then followed by > low > never detectable
Method: Human IgG present in COS cell supernatants was detected by ELISA: In the ELISA assay for human IgG, 96-well plates were coated with goat anti-human IgG (whole molecule) and human IgG in the samples that bound to the plates was detected using alkaline phosphatase-conjugated goat anti-human IgG (gamma-chain specific). Purchasable purified human IgG was used as a standard. Binding to the antigen recognized by MAb 425 was determined in a second ELISA. Plates were coated with an EGFR protein preparation (obtainable, for example, according to Rodeck et al., 1980) and antibodies binding to EGFR were detected using either an anti-human IgG (gamma-chain specific) peroxidase conjugate (for chimeric and reshaped human antibodies) or an anti-mouse IgG (whole molecule) peroxidase conjugate (for the mouse MAb 425 antibody) (both conjugates supplied by Sigma). Purified murine MAb 425 was used as a standard.

EGFR protein [6] = assay: Competition binding assay with biotinylated murine MAb 425 (cell supernatants); design: species or system human; settings: unpurified COS cell supernatants; relative levels of binding, not accurate affinity
Method: Murine MAb 425 was biotinylated using a correspondingly purchasable kit. ELISA plates were coated with an optimal dilution of the EGFR protein. Dilutions of the COS cell supernatants, in a volume of 50 μl, were mixed with 50 μl of the biotinylated murine MAb 425 (estimated by ELISA to be 1.75 μg/ml). Each COS cell supernatant was tested in duplicate. Plates were incubated at room temperature, overnight. Bound biotinylated murine MAb 425 was detected by the addition of a purchasable streptavidin horseradish peroxidase complex. A control with no competitor present allowed a value of percentage of inhibition or blocking to be calculated for each COS cell supernatant as follows: […]

[7] = biological target: T1, EGFR protein preparation (epidermal growth factor receptor) (human, UniProt P00533); assay: competition ELISA on EGFR-coated plates, competitor biotinylated murine MAb 425 (FIG. 7, Panel B)
[8] = biological target: T1, EGFR protein preparation (epidermal …); assay: antigen-binding ELISA on EGFR protein, cell supernatants
[9] = biological target: T1, EGFR protein preparation (epidermal …); assay: antigen-binding ELISA on EGFR protein, supernatant of co-transfected cells
[10] = biological target: T1, EGFR protein preparation (epidermal …); assay: antigen-binding ELISA on EGFR protein, cell supernatants (FIG. 8, Panel A)
[11] = biological target: T1, EGFR protein preparation (epidermal …); assay: antigen-binding ELISA on EGFR protein, COS supernatants (FIG. 6)
[12] = biological target: T1, EGFR protein preparation (epidermal …); assay: antigen-binding ELISA on EGFR protein, COS supernatants, with RVL a425 (FIG. 6)

MAb 425: murine monoclonal antibody raised against human A431 carcinoma cells, binds EGFR; hybridoma ATCC HB 9629 [reference compound]
binding potency (avidity) to EGFR [1]: similar
potency to compete with EGF for binding to EGFR [2]: the same; also recorded: nearly identical
binding to EGFR epitope [3]: bind to a polypeptide epitope on the external domain of the human epidermal growth factor receptor (EGFR)
inhibition of EGF binding to EGFR ([3]; low and high affinity EGFR sites): inhibit the binding of epidermal growth factor (EGF) at both low and high affinity EGFR sites
tumor cell growth [4]: suppress tumor cell growth

Chimeric 425 antibody: mouse 425 VL and VH regions with human kappa and gamma-1 constant regions
binding to EGFR in antigen-binding ELISA (EGFR protein [5]): binds well to EGFR protein
competition with labelled mouse 425 antibody for binding to antigen (percent inhibition of binding, relative avidity) (EGFR protein [6]): just slightly less than that obtained when unlabelled mouse 425 antibody is competed with labelled mouse 425 antibody
binding potency (avidity) to EGFR [1]: similar
potency to compete with EGF for binding to EGFR [2]: the same

B1: reshaped human 425 antibody with RVL a425 and RVH i425 (antibody, V domains shown)
VH: QVQLVQSGAEVKKPGASVKVSCKASGYTFTSHWMHWVRQAPGQGLEWVGEFNPSNGRTNYNEKFKSKATMTVDTSTNTAYMELSSLRSEDTAVYYCASRDYDYDGRYFDYWGQGTLVTVSS
VL: DIQMTQSPSSLSASVGDRVTITCSASSSVTYMYWYQQKPGKAPKLLIYDTSNLASGVPSRFSGSGSGTDFTFTISSLQPEDIATYYCQQWSSHIFTFGQGTKVEIK
binding result [7]: binds

B2: reshaped human 425 antibody with RVL b425 and RVH b425 (antibody, V domains shown)
VH: QVQLVQSGAEVKKPGASVKVSCKASGYTFSSHWMHWVRQAPGQGLEWVGEFNPSNGRTNYNEKFKSRVTMTVDTSTNTAYMELSSLRSEDTAVYYCASRDYDYDGRYFDYWGQGTLVTVSS
VL: DIQMTQSPSSLSASVGDRVTITCSASSSVTYMYWYQQKPGKAPKLLIYDTSNLASGVPSRFSGSGSGTDYTFTISSLQPEDIATYYCQQWSSHIFTFGQGTKVEIK
binding result [8]: binds

B3: antibody with reshaped human 425 light chain version a and chimeric 425 heavy chain (antibody, V domains shown)
VH: QVQLQQPGAELVKPGASVKLSCKASGYTFTSHWMHWVKQRAGQGLEWIGEFNPSNGRTNYNEKFKSKATLTVDKSSSTAYMQLSSLTSEDSAVYYCASRDYDYDGRYFDYWGQGTTLTVSS
VL: DIQMTQSPSSLSASVGDRVTITCSASSSVTYMYWYQQKPGKAPKLLIYDTSNLASGVPSRFSGSGSGTDFTFTISSLQPEDIATYYCQQWSSHIFTFGQGTKVEIK
binding result [9]: binds

B4: reshaped human 425 antibody with RVL b425 and RVH c425 (antibody, V domains shown)
VH: QVQLVQSGAEVKKPGASVKVSCKASGYTFSSHWMHWVRQAPGQGLEWVGEFNPSNGRTNYNEKFKSKATMTVDTSTNTAYMELSSLRSEDTAVYYCASRDYDYDGRYFDYWGQGTLVTVSS
VL: DIQMTQSPSSLSASVGDRVTITCSASSSVTYMYWYQQKPGKAPKLLIYDTSNLASGVPSRFSGSGSGTDYTFTISSLQPEDIATYYCQQWSSHIFTFGQGTKVEIK
binding result [10]: binds

B5: reshaped human 425 antibody with RVL a425 and RVH a425 (antibody, V domains shown)
VH: QVQLVQSGAEVKKPGASVKVSCKASGYTFSSHWMHWVRQAPGQGLEWVGEFNPSNGRTNYNEKFKSRVTMTLDTSTNTAYMELSSLRSEDTAVYYCASRDYDYDGRYFDYWGQGTLVTVSS
VL: DIQMTQSPSSLSASVGDRVTITCSASSSVTYMYWYQQKPGKAPKLLIYDTSNLASGVPSRFSGSGSGTDFTFTISSLQPEDIATYYCQQWSSHIFTFGQGTKVEIK
binding result [9]: no binding

B6: antibody with chimeric 425 light chain and reshaped human 425 heavy chain version a (antibody, V domains shown)
VH: QVQLVQSGAEVKKPGASVKVSCKASGYTFSSHWMHWVRQAPGQGLEWVGEFNPSNGRTNYNEKFKSRVTMTLDTSTNTAYMELSSLRSEDTAVYYCASRDYDYDGRYFDYWGQGTLVTVSS
VL: QIVLTQSPAIMSASPGEKVTMTCSASSSVTYMYWYQQKPGSSPRLLIYDTSNLASGVPVRFSGSGSGTSYSLTISRMEAEDAATYYCQQWSSHIFTFGSGTKLEIK
binding result [9]: no binding

B7: reshaped human 425 antibody with RVL a425 and RVH d425 (antibody, V domains shown)
VH: QVQLVQSGAEVKKPGASVKVSCKASGYTFSSHWMHWVRQAPGQGLEWIGEFNPSNGRTNYNEKFKSRVTMTLDTSTNTAYMELSSLRSEDTAVYYCASRDYDYDGRYFDYWGQGTLVTVSS
VL: DIQMTQSPSSLSASVGDRVTITCSASSSVTYMYWYQQKPGKAPKLLIYDTSNLASGVPSRFSGSGSGTDFTFTISSLQPEDIATYYCQQWSSHIFTFGQGTKVEIK
binding result [11]: no binding

B8: reshaped human 425 antibody with RVL a425 and RVH c425 (antibody, V domains shown)
VH: QVQLVQSGAEVKKPGASVKVSCKASGYTFSSHWMHWVRQAPGQGLEWVGEFNPSNGRTNYNEKFKSKATMTVDTSTNTAYMELSSLRSEDTAVYYCASRDYDYDGRYFDYWGQGTLVTVSS
VL: DIQMTQSPSSLSASVGDRVTITCSASSSVTYMYWYQQKPGKAPKLLIYDTSNLASGVPSRFSGSGSGTDFTFTISSLQPEDIATYYCQQWSSHIFTFGQGTKVEIK
binding result [12]: binds

B9: reshaped human 425 antibody with RVL a425 and RVH f425 (antibody, V domains shown)
VH: QVQLVQSGAEVKKPGASVKVSCKASGYTFSSHWMHWVRQAPGQGLEWIGEFNPSNGRTNYNEKFKSKATMTVDTSTNTAYMELSSLRSEDTAVYYCASRDYDYDGRYFDYWGQGTLVTVSS
VL: DIQMTQSPSSLSASVGDRVTITCSASSSVTYMYWYQQKPGKAPKLLIYDTSNLASGVPSRFSGSGSGTDFTFTISSLQPEDIATYYCQQWSSHIFTFGQGTKVEIK
binding result [12]: binds

B10: reshaped human 425 antibody with RVL a425 and RVH h425 (antibody, V domains shown)
VH: QVQLVQSGAEVKKPGASVKVSCKASGYTFTSHWMHWVRQAPGQGLEWVGEFNPSNGRTNYNEKFKSRVTMTVDTSTNTAYMELSSLRSEDTAVYYCASRDYDYDGRYFDYWGQGTLVTVSS
VL: DIQMTQSPSSLSASVGDRVTITCSASSSVTYMYWYQQKPGKAPKLLIYDTSNLASGVPSRFSGSGSGTDFTFTISSLQPEDIATYYCQQWSSHIFTFGQGTKVEIK
binding result [12]: binds

B11: reshaped human 425 antibody with RVL a425 and RVH b425 (antibody, V domains shown)
VH: QVQLVQSGAEVKKPGASVKVSCKASGYTFSSHWMHWVRQAPGQGLEWVGEFNPSNGRTNYNEKFKSRVTMTVDTSTNTAYMELSSLRSEDTAVYYCASRDYDYDGRYFDYWGQGTLVTVSS
VL: DIQMTQSPSSLSASVGDRVTITCSASSSVTYMYWYQQKPGKAPKLLIYDTSNLASGVPSRFSGSGSGTDFTFTISSLQPEDIATYYCQQWSSHIFTFGQGTKVEIK
binding result [12]: binds
